Consider 56 variants from article PMC11969024 (2025).

To fix the notation:
B1: peptide HD2 (from tick evasin EVA4) / CXCL13 (biotinylated, synthetic) (parent complex)
chain 1: EEDDYTAYAPLTCYFT
chain 2: VLEVYYTSLRCRCVQESSVFIPRRFIDRIQILPRGNGCPRKEIIVWKKNKSIVCVDPQAEWIQRMMEVLRKRSSSTLPVPVFKRKIP
B2: peptide HD2 (from tick evasin EVA4) / CCL22 (biotinylated, synthetic) (parent complex)
chain 1: EEDDYTAYAPLTCYFT
chain 2: GPYGANMEDSVCCRDYVRYRLPLRVVKHFYWTSDSCPRPGVVLLTFRDKEICADPRVPWVKMILNKLSQ

The variants in the first experiment derive from B1.
With chain 1 EEDDGTAYAPLTCYFT [chain 1 Y5G], the enrichment is -3.88 log2 (difference from the parental peptide). On the same count and under the same terms, with chain 1 FEDDYTAYAPLTCYFT [chain 1 E1F] the figure was -1.39 log2 (difference from the parental peptide).

Turning to chain 1 DEDDYTAYAPLTCYFT [chain 1 E1D], the enrichment is 2.17 log2 (difference from the parental peptide).

For the variant chain 1 NEDDYTAYAPLTCYFT [chain 1 E1N], the enrichment is -1.5 log2 (difference from the parental peptide). For chain 1 YEDDYTAYAPLTCYFT [chain 1 E1Y], the enrichment was 0.38 log2 (difference from the parental peptide). Same read-out and setting: then chain 1 MEDDYTAYAPLTCYFT [chain 1 E1M], with -0.674 log2 (difference from the parental peptide); and chain 1 WEDDYTAYAPLTCYFT [chain 1 E1W], with -0.426 log2 (difference from the parental peptide); and chain 1 SEDDYTAYAPLTCYFT [chain 1 E1S], with -2.39 log2 (difference from the parental peptide). chain 1 KEDDYTAYAPLTCYFT [chain 1 E1K]: the enrichment is -4.84 log2 (difference from the parental peptide). chain 1 EWDDYTAYAPLTCYFT [chain 1 E2W]: the enrichment was 1.38 log2 (difference from the parental peptide). On the same count and under the same terms, with chain 1 EDDDYTAYAPLTCYFT [chain 1 E2D] the figure was 1.8 log2 (difference from the parental peptide); with chain 1 ESDDYTAYAPLTCYFT [chain 1 E2S], -2.79 log2 (difference from the parental peptide).

Turning to chain 1 EQDDYTAYAPLTCYFT [chain 1 E2Q], the enrichment is -2.09 log2 (difference from the parental peptide). On to chain 1 EVDDYTAYAPLTCYFT [chain 1 E2V], for which the enrichment was -1.21 log2 (difference from the parental peptide). For the variant chain 1 EMDDYTAYAPLTCYFT [chain 1 E2M], the enrichment is -1.37 log2 (difference from the parental peptide). As for chain 1 EHDDYTAYAPLTCYFT [chain 1 E2H], the enrichment was -3.83 log2 (difference from the parental peptide). Still for that read-out and setting: then chain 1 EEDDYTAYAPLTCHFT [chain 1 Y14H], with -4.76 log2 (difference from the parental peptide); and chain 1 EEDDYTAYAPLTCCFT [chain 1 Y14C], with -6.09 log2 (difference from the parental peptide).

For chain 1 EEDPYTAYAPLTCYFT [chain 1 D4P], the enrichment is -1.45 log2 (difference from the parental peptide). Same read-out and setting: with chain 1 EEDGYTAYAPLTCYFT [chain 1 D4G] the figure was -5 log2 (difference from the parental peptide); with chain 1 EEDEYTAYAPLTCYFT [chain 1 D4E], -0.811 log2 (difference from the parental peptide); with chain 1 EEDLYTAYAPLTCYFT [chain 1 D4L], -4.8 log2 (difference from the parental peptide).

Consider chain 1 EEDYYTAYAPLTCYFT [chain 1 D4Y], for which the enrichment was -2.64 log2 (difference from the parental peptide).

chain 1 EEDMYTAYAPLTCYFT [chain 1 D4M]: the enrichment is -5.4 log2 (difference from the parental peptide).

Turning to chain 1 EEDDYTAYHPLTCYFT [chain 1 A9H], the enrichment was -1.63 log2 (difference from the parental peptide). As to chain 1 EEDDYTAYIPLTCYFT [chain 1 A9I], the enrichment is -5.77 log2 (difference from the parental peptide). As for chain 1 EEDDYTAYMPLTCYFT [chain 1 A9M], the enrichment is -0.268 log2 (difference from the parental peptide). Still for that read-out and setting: with chain 1 EEDDYTAYWPLTCYFT [chain 1 A9W] the figure was 1.81 log2 (difference from the parental peptide); with chain 1 EEDDYTAYGPLTCYFT [chain 1 A9G], 0.486 log2 (difference from the parental peptide); with chain 1 EEDDYTAYYPLTCYFT [chain 1 A9Y], -1.21 log2 (difference from the parental peptide). On the same count and under the same terms, then chain 1 EEDDYTAYASLTCYFT [chain 1 P10S], with -4.38 log2 (difference from the parental peptide).

For the variant chain 1 EEDDYTAYADLTCYFT [chain 1 P10D], the enrichment is 0.396 log2 (difference from the parental peptide).

chain 1 EEDDYTAYANLTCYFT [chain 1 P10N]: the enrichment is -5.21 log2 (difference from the parental peptide). On the same count and under the same terms, with chain 1 EEDDYNAYAPLTCYFT [chain 1 T6N] the figure was 2.54 log2 (difference from the parental peptide); with chain 1 EEDDYDAYAPLTCYFT [chain 1 T6D], 5.14 log2 (difference from the parental peptide). Still for that read-out and setting: then chain 1 EEDDYKAYAPLTCYFT [chain 1 T6K], with -2.94 log2 (difference from the parental peptide); and chain 1 EEDDYEAYAPLTCYFT [chain 1 T6E], with 4.71 log2 (difference from the parental peptide). On the same count and under the same terms, with chain 1 EEDDYMAYAPLTCYFT [chain 1 T6M] the figure was 3.02 log2 (difference from the parental peptide); with chain 1 EEDDYHAYAPLTCYFT [chain 1 T6H], 0.439 log2 (difference from the parental peptide); with chain 1 EEDDYGAYAPLTCYFT [chain 1 T6G], 4.13 log2 (difference from the parental peptide). On to chain 1 EEDDYAAYAPLTCYFT [chain 1 T6A], for which the enrichment is 1.86 log2 (difference from the parental peptide). On the same count and under the same terms, then chain 1 EEDDYPAYAPLTCYFT [chain 1 T6P], with -0.391 log2 (difference from the parental peptide); and chain 1 EEDDYQAYAPLTCYFT [chain 1 T6Q], with 1.51 log2 (difference from the parental peptide).

Variants of B2 are the subject of another experiment.
Take chain 1 EEWDYTAYAPLTCYFT [chain 1 D3W]: the enrichment was -4.6 log2 (difference from the parental peptide). Still for that read-out and setting: with chain 1 EEDDYTAYAPLTCYQT [chain 1 F15Q] the figure was -0.747 log2 (difference from the parental peptide); with chain 1 EEDDYTAYAPLTCYWT [chain 1 F15W], 0.858 log2 (difference from the parental peptide); with chain 1 EEDDYTKYAPLTCYFT [chain 1 A7K], 1.75 log2 (difference from the parental peptide). In the case of chain 1 EEDDYTNYAPLTCYFT [chain 1 A7N], the enrichment is 0.601 log2 (difference from the parental peptide). Same read-out and setting: with chain 1 EEDPYTAYAPLTCYFT [chain 1 D4P] the figure was -7.07 log2 (difference from the parental peptide); with chain 1 EEDDYTAYVPLTCYFT [chain 1 A9V], -7.85 log2 (difference from the parental peptide). As to chain 1 EEDDYTAYAPLSCYFT [chain 1 T12S], the enrichment is -0.091 log2 (difference from the parental peptide). The same measure, in the same setting: then chain 1 EEDDYTAYAPLKCYFT [chain 1 T12K], with 2.34 log2 (difference from the parental peptide). As to chain 1 EEDDYTAYADLTCYFT [chain 1 P10D], the enrichment was -7.41 log2 (difference from the parental peptide).

With chain 1 EEDDYQAYAPLTCYFT [chain 1 T6Q], the enrichment was 1.04 log2 (difference from the parental peptide). On the same count and under the same terms, with chain 1 EEDDYAAYAPLTCYFT [chain 1 T6A] the figure was 2.21 log2 (difference from the parental peptide); with chain 1 EEDDYTAYAPLTCVFT [chain 1 Y14V], 0.032 log2 (difference from the parental peptide).
